From PMC5916898, “Global profiling of protein–DNA and protein–nucleosome binding affinities using quantitative mass spectrometry”

How the values were obtained:
Experiment in all cases: pulldown; 150 mM NaCl, 50 mM Tris pH 8, 0.25% NP-40, 1 mM TCEP; 4 C, 2 h; 100 ug HeLa nuclear lysate
HOXC10 = HOXC10 (Homo sapiens, UniProt Q9NYD6); conditions: protein: extract; label: 5' biotin (strand 1)
PAX6 = PAX6 (Homo sapiens, UniProt P26367); conditions: protein: extract; label: 5' biotin (strand 1)
SMAD4 = SMAD4 (Homo sapiens, UniProt Q13485); conditions: protein: extract; label: 5' biotin (strand 1)
Sequence of SMAD4 (Q13485 whole entry): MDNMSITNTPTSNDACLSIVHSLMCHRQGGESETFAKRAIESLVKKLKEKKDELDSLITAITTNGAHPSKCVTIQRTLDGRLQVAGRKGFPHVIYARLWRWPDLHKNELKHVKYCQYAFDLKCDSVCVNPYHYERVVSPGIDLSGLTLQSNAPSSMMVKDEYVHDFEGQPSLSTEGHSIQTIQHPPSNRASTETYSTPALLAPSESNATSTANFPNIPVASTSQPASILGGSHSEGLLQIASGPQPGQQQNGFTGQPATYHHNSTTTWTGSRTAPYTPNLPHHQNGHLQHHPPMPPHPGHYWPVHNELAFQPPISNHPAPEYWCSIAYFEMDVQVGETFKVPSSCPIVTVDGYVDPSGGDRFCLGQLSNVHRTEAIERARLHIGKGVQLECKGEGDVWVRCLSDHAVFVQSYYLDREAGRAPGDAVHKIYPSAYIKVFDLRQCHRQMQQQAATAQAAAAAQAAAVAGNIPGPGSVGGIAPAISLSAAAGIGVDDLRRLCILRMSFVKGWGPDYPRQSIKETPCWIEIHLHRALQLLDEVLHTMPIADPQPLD

CTCF = molecular target: T1, CTCF (Homo sapiens, UniProt P49711); conditions: protein: extract; label: 5' biotin (strand 1)
T1 sequence: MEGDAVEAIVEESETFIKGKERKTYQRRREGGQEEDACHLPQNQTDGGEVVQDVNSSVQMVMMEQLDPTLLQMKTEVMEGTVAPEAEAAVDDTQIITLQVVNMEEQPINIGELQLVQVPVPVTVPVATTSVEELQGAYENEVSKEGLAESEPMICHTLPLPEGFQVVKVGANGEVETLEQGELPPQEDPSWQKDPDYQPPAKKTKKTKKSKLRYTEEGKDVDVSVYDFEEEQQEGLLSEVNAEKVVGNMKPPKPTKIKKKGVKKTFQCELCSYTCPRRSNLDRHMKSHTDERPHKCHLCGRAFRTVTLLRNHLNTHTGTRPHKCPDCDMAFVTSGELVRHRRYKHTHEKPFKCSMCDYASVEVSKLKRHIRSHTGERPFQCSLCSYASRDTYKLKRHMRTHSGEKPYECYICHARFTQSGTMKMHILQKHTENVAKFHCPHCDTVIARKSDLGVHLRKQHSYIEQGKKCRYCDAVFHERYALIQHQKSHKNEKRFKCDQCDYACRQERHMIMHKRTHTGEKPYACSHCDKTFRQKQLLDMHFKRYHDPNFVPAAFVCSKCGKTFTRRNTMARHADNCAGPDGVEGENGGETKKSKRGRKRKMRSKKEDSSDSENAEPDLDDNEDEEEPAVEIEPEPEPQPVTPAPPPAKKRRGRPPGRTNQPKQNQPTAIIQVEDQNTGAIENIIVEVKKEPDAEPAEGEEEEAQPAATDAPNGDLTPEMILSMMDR

ZNF512B = molecular target: T2, ZNF512B (Homo sapiens, UniProt Q96KM6); conditions: protein: extract; label: 5' biotin (strand 1)
T2 sequence: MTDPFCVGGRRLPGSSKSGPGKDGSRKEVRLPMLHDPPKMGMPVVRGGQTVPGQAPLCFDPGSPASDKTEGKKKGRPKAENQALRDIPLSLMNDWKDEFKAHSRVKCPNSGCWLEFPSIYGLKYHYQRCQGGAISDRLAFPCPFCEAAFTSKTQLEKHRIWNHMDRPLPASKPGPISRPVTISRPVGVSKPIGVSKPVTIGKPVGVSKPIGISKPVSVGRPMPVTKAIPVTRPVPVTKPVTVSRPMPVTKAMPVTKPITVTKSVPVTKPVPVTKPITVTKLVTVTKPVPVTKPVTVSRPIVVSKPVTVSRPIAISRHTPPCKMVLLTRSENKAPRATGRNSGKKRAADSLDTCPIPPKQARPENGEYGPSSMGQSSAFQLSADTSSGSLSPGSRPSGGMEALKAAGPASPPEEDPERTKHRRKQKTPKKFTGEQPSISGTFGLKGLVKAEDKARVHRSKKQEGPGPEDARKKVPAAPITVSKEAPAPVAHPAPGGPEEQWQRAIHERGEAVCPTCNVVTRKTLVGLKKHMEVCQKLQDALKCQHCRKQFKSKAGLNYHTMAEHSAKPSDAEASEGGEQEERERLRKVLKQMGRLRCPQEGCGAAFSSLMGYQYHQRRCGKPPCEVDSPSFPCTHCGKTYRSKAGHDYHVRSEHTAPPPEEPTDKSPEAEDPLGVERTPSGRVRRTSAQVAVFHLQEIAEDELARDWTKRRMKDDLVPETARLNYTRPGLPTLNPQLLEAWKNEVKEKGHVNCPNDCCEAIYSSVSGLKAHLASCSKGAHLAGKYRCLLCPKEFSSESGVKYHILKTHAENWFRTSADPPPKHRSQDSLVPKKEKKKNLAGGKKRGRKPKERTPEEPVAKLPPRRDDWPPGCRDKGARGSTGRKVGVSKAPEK

HIVEP1 = HIVEP1 (Homo sapiens, UniProt P15822)
ZNF787 = ZNF787 (Homo sapiens, UniProt Q6DD87); conditions: protein: extract; label: 5' biotin (strand 1)
Sequence of ZNF787 (Q6DD87 whole entry): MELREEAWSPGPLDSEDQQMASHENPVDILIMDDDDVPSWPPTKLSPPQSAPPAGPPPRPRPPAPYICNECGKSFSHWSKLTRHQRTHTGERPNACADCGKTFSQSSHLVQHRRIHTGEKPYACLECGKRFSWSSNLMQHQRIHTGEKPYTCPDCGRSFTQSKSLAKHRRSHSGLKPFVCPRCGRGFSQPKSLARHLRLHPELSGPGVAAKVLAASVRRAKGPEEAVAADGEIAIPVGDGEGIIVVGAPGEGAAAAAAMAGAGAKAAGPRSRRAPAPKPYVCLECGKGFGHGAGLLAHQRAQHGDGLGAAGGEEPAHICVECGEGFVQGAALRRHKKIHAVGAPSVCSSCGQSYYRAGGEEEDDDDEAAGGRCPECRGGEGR

GLIS2 = molecular target: T3, GLIS2 (Homo sapiens, UniProt Q9BZE0); conditions: protein: extract; label: 5' biotin (strand 1)
T3 sequence: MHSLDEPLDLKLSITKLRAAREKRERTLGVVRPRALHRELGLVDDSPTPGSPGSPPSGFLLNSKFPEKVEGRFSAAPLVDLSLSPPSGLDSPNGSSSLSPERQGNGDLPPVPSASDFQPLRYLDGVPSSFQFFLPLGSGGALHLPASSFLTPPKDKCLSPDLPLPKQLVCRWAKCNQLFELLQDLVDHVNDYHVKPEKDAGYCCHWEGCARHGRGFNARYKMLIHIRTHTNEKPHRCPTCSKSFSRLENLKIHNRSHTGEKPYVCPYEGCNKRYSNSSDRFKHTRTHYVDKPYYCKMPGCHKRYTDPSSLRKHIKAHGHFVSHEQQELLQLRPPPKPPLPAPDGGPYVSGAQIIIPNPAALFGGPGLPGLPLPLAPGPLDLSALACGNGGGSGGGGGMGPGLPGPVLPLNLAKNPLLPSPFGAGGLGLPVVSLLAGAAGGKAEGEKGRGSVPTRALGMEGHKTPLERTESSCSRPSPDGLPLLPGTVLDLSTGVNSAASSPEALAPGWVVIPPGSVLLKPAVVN

Sequence of PAX6 (P26367 whole entry): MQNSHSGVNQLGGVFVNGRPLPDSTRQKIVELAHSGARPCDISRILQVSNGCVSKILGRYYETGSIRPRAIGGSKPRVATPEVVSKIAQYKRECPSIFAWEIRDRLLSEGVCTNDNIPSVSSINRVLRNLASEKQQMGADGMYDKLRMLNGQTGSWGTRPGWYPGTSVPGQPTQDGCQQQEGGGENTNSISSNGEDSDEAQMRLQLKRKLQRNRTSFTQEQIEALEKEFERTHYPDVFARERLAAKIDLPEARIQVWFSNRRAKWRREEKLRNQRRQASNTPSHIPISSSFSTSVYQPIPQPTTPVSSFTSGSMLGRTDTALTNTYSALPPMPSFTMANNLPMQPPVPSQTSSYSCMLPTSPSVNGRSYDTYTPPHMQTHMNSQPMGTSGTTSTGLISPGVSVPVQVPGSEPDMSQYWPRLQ
Sequence of HOXC10 (Q9NYD6 whole entry): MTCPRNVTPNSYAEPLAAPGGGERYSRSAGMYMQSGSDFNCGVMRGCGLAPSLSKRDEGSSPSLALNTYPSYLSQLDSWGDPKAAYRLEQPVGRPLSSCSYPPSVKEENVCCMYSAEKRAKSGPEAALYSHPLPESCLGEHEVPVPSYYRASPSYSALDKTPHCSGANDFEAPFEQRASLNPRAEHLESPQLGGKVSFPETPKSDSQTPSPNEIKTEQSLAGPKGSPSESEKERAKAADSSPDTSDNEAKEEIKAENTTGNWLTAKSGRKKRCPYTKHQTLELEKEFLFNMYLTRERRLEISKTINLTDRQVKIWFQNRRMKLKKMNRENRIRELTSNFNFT

B1: TATA-box (dsDNA)
DNA 1: GCGGCGCTCTATATAAGTGGGCAGTG
DNA 2: CACTGCCCACTTATATAGAGCGCCGC
- apparent K (half saturation) (HOXC10): 87.8 nM

B2: TEAD (dsDNA)
DNA 1: TCGGGACCCAGGCCTGGAATGTTTCCACC
DNA 2: GGTGGAAACATTCCAGGCCTGGGTCCCGA
- apparent K (half saturation) (PAX6): 191 nM

B3: CTCF (dsDNA)
DNA 1: TCAGAGTGGCGGCCAGCAGGGGGCGCCCTTGCCAGA
DNA 2: TCTGGCAAGGGCGCCCCCTGCTGGCCGCCACTCTGA
- apparent K (half saturation) (SMAD4): 153 nM
- apparent K (half saturation) (CTCF): 16.1 nM
- apparent K (half saturation) (ZNF512B): 353 nM
- apparent K (half saturation) (HIVEP1): 76.6 nM
- apparent K (half saturation) (ZNF787): 370 nM
- apparent K (half saturation) (GLIS2): 15 nM
